Experimental data reported in US20090081786A1, “Peptide sequences for modulation of protein kinase C” (priority 2006, published 2009).

T1: annexin V (Homo sapiens, UniProt P08758)
T1 sequence (P08758 1-320): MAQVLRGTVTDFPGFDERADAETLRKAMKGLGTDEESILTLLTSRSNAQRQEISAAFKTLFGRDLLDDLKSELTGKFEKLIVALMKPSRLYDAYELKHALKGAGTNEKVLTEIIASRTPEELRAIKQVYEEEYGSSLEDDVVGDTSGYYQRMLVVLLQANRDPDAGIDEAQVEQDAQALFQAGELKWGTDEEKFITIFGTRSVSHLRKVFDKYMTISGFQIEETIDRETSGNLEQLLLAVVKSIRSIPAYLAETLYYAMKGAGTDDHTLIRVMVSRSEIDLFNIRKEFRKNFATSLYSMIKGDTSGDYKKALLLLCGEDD


Biological target: T1, annexin V
Test: overlay binding assay on immobilized annexin V
Conditions: immobilized annexin V on nitrocellulose, overlay 37° C. 30 min, Western blotting
Experimental: A binding assay was performed in vitro, using an immobilized annexin V with the δ-PKC, δ-V1 (SEQ ID NO:18) (the C2 domain of δ-PKC), δ-V5 (SEQ ID NO:19), and ε-V1 (SEQ ID NO:20) peptides. These domains are recognized in the art as participating in protein-protein interactions.
10 μg of the annexin V was separated on 12% SDS-PAGE gel and transferred to nitrocellulose, and then cut into strips. The strips were incubated with blocking buffer (50 mM Tris pH 7.5, 200 mM NaCl, 3% bovine serum albumin, 0.1% PEG20). The strips were then incubated in overlay buffer (50 mM Tris pH 7.5, 200 mM NaCl, 1% PEG20, 12 mM β-mercaptoethanol) in the presence where appropriate of 30 μg crude bacterial cell lysate containing fusion proteins of myelin basic protein (MBP)-delta V1 PKC (MBP-δV1), glutathione-S-transferase-delta V5 PKC (GST-δV5), and full length sequences of δ-PKC or rat purified ε-PKC (SEQ ID NO:21) at 37° C. for 30 min. The strips where then washed with wash buffer (50 mM Tris pH 7.5, 200 mM NaCl, 0.1% PEG20, 12 mM β-mercaptoethanol), and then incubated with fixative (0.2% formaldehyde in PBS) and neutralizing solution (0.2M glycine in PBS) at room temperature 20 min each. After washing with buffer, the strips were probed with antibodies according to the overlay protein, and resulting bands were visualized using ECL Western blotting.

binding to annexin V | Molecule
did not bind to the annexin V | ε-V1: V1 region of ε-PKC (SEQ ID NO:20) (protein, listed as Homo sapiens) MVVFNGLLKIKICEAVSLKPTAWSLRHAVGPRPQTFLLDPYIALNVDDSRIGQTATKQKTNSPAWHDEFVTDVCNGRKIELAVFHDAPIGYDDFVANCTIQFEELLQNGSRHFEDWIDLEPEGKVYVIIDLSGSSGEAPKDNEE
bind to the annexin V | δ-PKC: full length δ-protein kinase C (SEQ ID NO:16) (protein, listed as Homo sapiens) MAPFLRISFNSYELGSLQVEDEASQPFCAVKMKEALSTERGKTLVQKKPTMYPEWKTTFDAHIYEGRVIQIVLMRAAEDPVSEVTVGVSVLAERCKKNNGKAEFWLDLQPQAKVLMCVQYFLEDGDCKQSMRSEEEAKFPTMNRRGAIKQAKIHYIKNHEFIATFFGQPTFCSVCKEFVWGLNKQGYKCRQCNAAIHKKCIDKIIGRCTGTATNSRDTIFQKERFNIDMPHRFKVYNYMSPTFCDHCGSLLWGLVKQGLKCEDCGMNVHHKCREKVANLCGINQKLLAEALNQVTQRSSRKLDTTESVGIYQGFEKKPEVSGSDILDNNGTYGKIWEGSTRCTLENFTFQKVLGKGSFGKVLLAELKGKDKYFAIKCLKKDVVLIDDDVECTMVEKRVLALAWESPFLTHLICTFQTKDHLFFVMEFLNGGDLMFHIQDKGRFELYRATFYAAEIICGLQFLHSKGIIYRDLKLDNVMLDRDGHIKIADFGMCKENIFGEGRASTFCGTPDYIAPEILQGLKYSFSVDWWSFGVLLYEMLIGQSPFHGDDEDELFESIRVDTPHYPRWITKESKDIMEKLFERDPDKRLGVTGNIRIHPFFKTINWSLLEKRKVEPPFKPKVKSPSDYSNFDPEFLNEKPQLSFSDKNLIDSMDQEAFHGFSFVNPKFEQFLDI
bind to the annexin V | δ-V1: V1/C2 domain of δ-PKC (SEQ ID NO:18), used as myelin basic protein fusion (protein, left off: large carriers) MAPFLRISFNSYELGSLQAEDDASQPFCAVKMKEALTTDRGKTLVQKKPTMYPEWKSTFDAHIYEGRVIQIVLMRAAEDPMSEVTVGVSVLAERCKKNNGKAEFWLDLQPQAKVLMCVQYFLEDGDCKQSMRSEEEAMFPTMNRRGAIKQAKIHYIKNHE
